# Reference: the RNAGym collection of RNA variant scans (doi:10.7554/elife.90254)
# B1: LINE1-full (parent)
# chain: UACGUAGGUGGUUUUCCCCUGAUAGUGCUAAGGGGGCCUGGAAGUUUGGACUGGGCAGAGCUCAACACAGCGUGGCAAAGUGGCUGUGGCUAGACUGCCUCUCUGGAUUCCUCGUCACUCAGCAGGGCAUCUCUGAGAGAAAUGCC
# Variants of: B1
# Assay: self-cleavage, relative activity (ratio to wild type); higher = more cleavage; in vitro, sequencing; the parent is a self-cleaving ribozyme
row,Variant,self-cleavage
1,C3U U14C,0.81
2,U12G U20A,1.08
3,U102C U104G,1.6
4,A43U U96A,0.12
5,U20A U85C,0.09
6,G33C U87G,0.22
7,U108C U115A,1.86
8,U20A G48A,0.77
9,C84U A142G,0.12
10,U26C U52A,1.53
11,U81C U112C,1.26
12,U112A U132C,1.42
13,G70U,0.05
14,U12C G48A,0.97
15,G36A A59U,0.67
16,U52C A138G,1.48
17,C111U U115A,1.77
18,U39C U112C,1.24
19,A22G U134C,0.96
20,U45G G83A,0.54
21,U108C U132C,1.83
22,A57U U134G,0.02
23,U29C A69G,0.53
24,A94C A117G,0.22

row,Variant,self-cleavage
1,U12G A77U,0.78
2,U39A A67U,0.07
3,A69U U85C,0
4,G25A A43G,1.27
5,A2U A30G,1.2
6,U85A C120U,0.2
7,U104C G127A,1.47
8,U1C A24C,0.91
9,C84G U132C,0.11
10,U13C U47G,0.81
11,A65G A79U,0.04
12,A65G C90A,0.01
13,U20C U96C,0.08
14,U1C C128A,0.79
15,A117G A129G,1.32
16,A57U A136G,0.11
17,G60A A92G,0.03
18,A77G C103U,1.99
19,G4U U81C,0.2
20,U14A U112C,0.79
21,A24G A117U,1.09
22,U81A A121G,2.65
23,A57C U130C,0.18
24,C28U U115G,1.3

row,Variant,self-cleavage
1,C28G U100A,0.81
2,C66U U119C,0.04
3,C51A,1.31
4,A69G C90A,0
5,G40A G82A,1.73
6,U52A A67U,0.05
7,U29C U87C,0.41
8,A43G A59G,0.14
9,U52A U104G,1.53
10,U46C U52C,1.26
11,C63U A107G,0.45
12,A117U A129U,1.78
13,U52C G55A,0.14
14,U20A A77U,1.14
15,U5A A67G,0.7
16,A121U U143C,1.59
17,A50G C99U,0.43
18,G58A A136G,0.05
19,U109C G127U,1.25
20,C3U A6U,0.2
21,G60A A117G,0.11
22,A79U C101A,1.92
23,A31G U112A,1.61
24,A22G A94G,0.56

row,Variant,self-cleavage
1,U104C,1.65
2,G114C U115C,1.24
3,U9A U29A,0.79
4,U62C C95U,0.03
5,U23G U143C,0
6,A69U A94G,0.02
7,A2G U81A,0.74
8,U14A A64G,0.21
9,A94G U96A,0.11
10,U39C U46G,1.75
11,A30G G106U,0.83
12,C37G A138G,0.8
13,A94G A142G,0.41
14,C61A U130A,0.06
15,U26C A92G,0.04
16,U39A A57U,0.12
17,U39A U104C,1.57
18,A24U A140U,2
19,A117G A124U,1.25
20,A59G G86U,0.03
21,A94G A107G,0.51
22,G35U G127A,1.22
23,C16U A140U,1.78
24,A69U U109G,0

row,Variant,self-cleavage
1,C99U U108C,0.71
2,C51U G89U,0.03
3,G44A U134C,0.92
4,A77G C113U,2.28
5,U100C A129G,1.99
6,U12C C120A,1.47
7,U26C U73G,0.97
8,A43G G93U,0.05
9,G89A A107G,0.01
10,U15C U100G,1.84
11,U73A U132C,1.53
12,U13A A65G,0.08
13,U62A A78G,0.05
14,A121G U132A,1.86
15,A2U A142G,1.15
16,U73G A142G,1.2
17,U13C G25A,1.31
18,C38A U143G,1.43
19,G72A U102C,0.46
20,C51U G127A,1.35
21,U15C U20G,0.52
22,A6G A129U,0.6
23,A42G U46A,1.11
24,A67G U132A,0.64

row,Variant,self-cleavage
1,U13C U100G,1.63
2,G44A G89C,0.04
3,C90U U119C,0.03
4,G58U G80A,0
5,U100C G144A,1.07
6,G21A U45A,1.58
7,G34U U85G,0.09
8,A22G A117C,2.12
9,A30G U102G,1.84
10,G10A U134C,1.5
11,A42U U134C,1.34
12,G4A U85C,0.13
13,U13C G93U,0.03
14,U45C U91A,0.55
15,G41C,1.22
16,G80C U109C,1.27
17,U12A A57G,1.23
18,G32A A124G,0.69
19,U14A U108G,1.09
20,A79G U119C,1.48
21,G4A U87G,0.07
22,C84G U104C,0.11
23,C123U A141G,1.24
24,A92U U96C,0.11

row,Variant,self-cleavage
1,U39C U87C,0.17
2,G114C A142G,1.78
3,G21A U134A,1.17
4,A69U G88A,0.01
5,U52A U102A,1.03
6,U73A A117U,1.81
7,U81C A117C,1.59
8,U109A,1.31
9,G72A A94U,0.06
10,A57G U100C,1.99
11,G106A U112A,1.64
12,G88A G114A,0.08
13,C98U U102C,0.55
14,A43G A77U,1.05
15,U112C G137A,1.17
16,A64U C113U,0.28
17,U5A A64C,0.19
18,A59U U104A,0.81
19,C133U,1.16
20,G53A U85C,0.2
21,G7A U39C,0.83
22,C71A A138G,0.33
23,C63U U100C,0.99
24,C90U U108G,0.09

row,Variant,self-cleavage
1,U29C A77G,1.92
2,A78G G80A,2.49
3,A43U A77G,2.1
4,U109C A141G,1.46
5,U119A A138G,2.02
6,U5A,0.95
7,G80U U132A,2.3
8,C38A U109C,1
9,U45C A57U,0.11
10,G122A A124G,0.62
11,A2C U14A,1.16
12,A6U A140G,0.77
13,U20A A22U,1.56
14,A92U U132C,0.83
15,A6G U134G,0.8
16,A30U U39C,0.85
17,A69U G82A,0.14
18,A67C U104G,0.14
19,U73C U81G,2.04
20,G44U U109C,1.31
21,G33A C76U,1.87
22,U132A A140G,1.41
23,G40A A59G,0.06
24,A69G U143C,0.5

row,Variant,self-cleavage
1,A50G A64C,0.37
2,A24U C110A,1.1
3,U9C G35U,1.13
4,U62C G122C,0.03
5,U87C G106U,0.26
6,U12A U13A,1.08
7,A43G G75U,0.99
8,A42C G93A,0.03
9,U119A A136G,1.12
10,G54A U108C,0.89
11,U46C U132G,1.91
12,C61U U73G,0.16
13,A6U G34U,1.02
14,A30G U100C,1.07
15,U20C C111U,1.03
16,U12G A42G,1.42
17,A6U A50G,0.72
18,U14A U85C,0.13
19,A141C U143A,1.79
20,U115C C145A,1.84
21,G4U U5C,0.79
22,U52A U85G,0.22
23,U20C U29A,0.62
24,A42G U115C,1.67

row,Variant,self-cleavage
1,U13C U81A,1.56
2,A64U A142U,0.46
3,G7A U112C,1.22
4,U52C A79G,0.75
5,A69G C84G,0.06
6,G41A A57U,0.11
7,U26A C63U,0.37
8,U15A A22G,0.79
9,U46A A121G,1.15
10,C110U C113A,1.35
11,U9A A67U,0.25
12,G40U A50G,0
13,A79U C99A,0.31
14,U26A U134A,1.23
15,G86C,0.06
16,G89A U109G,0.04
17,C51U C131A,1.23
18,U5A C128U,1.06
19,G88A A140U,0.07
20,C61U A141G,0.05
21,G53A U62C,0.05
22,U26C U29C,1.15
23,U13C C110A,1.29
24,U12A U62A,0.05

row,Variant,self-cleavage
1,U26C U102C,1.22
2,U20C U134C,1.57
3,A22U U47A,1.44
4,U20C A69U,0.07
5,A65G U112A,0.04
6,U9C U62C,0.18
7,A2G G32A,0
8,A6G U81A,1.47
9,G25A U39A,1.15
10,A30U U81C,1.52
11,A31U G32A,1.56
12,A31U A69G,0.75
13,A30G A136U,0.55
14,U9C U91A,0.7
15,U85C U104C,0.18
16,G58A U102C,0.04
17,G21A U102A,1.14
18,A31C U109C,2.01
19,G44C,1.22
20,G54A A79G,0.4
21,G60C,0.05
22,U5C A129G,1.43
23,U85A A129U,0.12
24,U62A U143C,0.05

row,Variant,self-cleavage
1,C90A A107G,0.04
2,G27A A140G,1.38
3,U39A U81A,2.08
4,G40A U85C,0.04
5,A50U U96C,0.1
6,A79G U96C,0.16
7,U39A G72A,1.81
8,A2G A22G,0.97
9,U100C U102A,1.95
10,A57G A77G,1.68
11,G44A U46A,0.79
12,U13G A107G,1.12
13,C38U U62C,0
14,U13C U15A,0.79
15,U45A A124G,0.41
16,G36A A57U,0.12
17,U23A A57G,0.94
18,C37G G60A,0.06
19,U100G U119C,2.45
20,U9A A79U,1.59
21,A42G G54U,1.06
22,U20C G74U,1.46
23,G40A A78U,1.96
24,A77U G93C,0.03

row,Variant,self-cleavage
1,A22G A79G,0.76
2,C37G U102C,1.19
3,U13C U52C,1.06
4,U47C U115A,1.75
5,G27C A67C,0.1
6,A77U A79G,1.48
7,U14C A43G,1.14
8,A2U U100A,0.66
9,G27A U102A,1.12
10,U85A G93U,0.08
11,A22G G93A,0.03
12,G75A A78G,0.7
13,A59G C76A,0.08
14,C76U A141C,1.29
15,U73C U143A,1.63
16,U91A U143A,0.52
17,U87C U109A,0.15
18,G135A A138G,1.82
19,G55A A65G,0.03
20,U5C U12G,1.34
21,U62C C110A,0.05
22,U52C A78G,1
23,A24U G83A,1.07
24,U134C U143C,1.21

row,Variant,self-cleavage
1,C71A U108C,0.43
2,U104C C123A,1.73
3,G27A A94G,0.23
4,U26C G122U,1.05
5,U14G U132C,1.13
6,G34U A79G,0.55
7,A50G U112A,1.02
8,G32A A94G,0.36
9,C71U C99G,0.12
10,C37U A136U,1.49
11,U73A A77G,2.29
12,U13C U26A,0.97
13,G35U C110U,1.51
14,U29A A50U,0.89
15,A79U G86A,0.07
16,G34U G48A,1.49
17,U47G U130A,1.23
18,A57U U96A,0.52
19,G10A A69G,0.64
20,U15C G58A,0.11
21,U13A U96A,0.05
22,U96C G127A,0.08
